Legend:
[1] = system: anti-OVA antibody (Ab) response; experiment: Example 2: anti-OVA antibody response to aggOVA; assay type: in vivo, C57BL/6 mice; details: 25 μg aggOVA i.v. d0, 14, 28 then boosts; nanocarriers i.v. (100 μg rapamycin) concomitantly d0, 14, 28 only; days 25, 40 and next 60 days; FIG. 3
[2] = system: anti-OVA IgG antibody response; experiment: Example 9: anti-OVA IgG antibody titers; assay type: in vivo, C57BL/6; details: 2.5 μg pOVA i.v. weekly; 0.2 mg nanocarrier admixed days 0, 7, 14; FIG. 11
Method: The control group of C57BL/6 age-matched (5-6 weeks) female were injected i.v. in the tail vein with 2.5 μg of an immunogenic form of particulate Ovalbumin (pOVA) and 2 μg of Keyhole Limpet Hemocyanin (KLH) s.c. in the hind limb once a week for 49 days (d0, 7, 14, 20, 28, 35, 42, 49).

B1: aggOVA: chicken ovalbumin induced using high sheer to form aggregates to increase its immunogenicity (protein, UniProt P01012 2-386, looked up)
Ovalbumin: GSIGAASMEFCFDVFKELKVHHANENIFYCPIAIMSALAMVYLGAKDSTRTQINKVVRFDKLPGFGDSIEAQCGTSVNVHSSLRDILNQITKPNDVYSFSLASRLYAEERYPILPEYLQCVKELYRGGLEPINFQTAADQARELINSWVESQTNGIIRNVLQPSSVDSQTAMVLVNAIVFKGLWEKAFKDEDTQAMPFRVTEQESKPVQMMYQIGLFRVASMASEKMKILELPFASGTMSMLVLLPDEVSGLEQLESIINFEKLTEWTSSNVMEERKIKVYLPRMKMEEKYNLTSVLMAMGITDVFSSSANLSGISSAESLKISQAVHAAHAEINEAGREVVGSAEAGVDAASVSEEFRADHPFLFCIKHIATNAVLFFGRCVSP
modifications: shear-induced aggregates
anti-OVA antibody (IgG) response [1]: prominent anti-OVA antibody (Ab) response

B2: pOVA: immunogenic form of particulate Ovalbumin (protein, UniProt P01012 2-386, looked up)
Ovalbumin: B1 Ovalbumin
modifications: particulate form
notes: immunogenic form of particulate Ovalbumin
anti-OVA IgG antibody titers at day 54 [2]: robust immune response
